Key:
KPC strain Kp961842_O2 = assay: Lethal pneumonia model, KPC strain Kp961842_O2; type: in vivo, Klebsiella pneumoniae; details: C57/BL6 mice, 2e8 CFU; mAb 2 mg/kg 1 hour post infection; survival
Method: (§1) C57/BL6 mice were obtained from Jackson Laboratories and maintained in a special pathogen-free facility. All animal experiments were conducted in accordance with Institutional Animal Care and Use Committee (IACUC) protocol and guidance. K. pneumoniae strains were grown on agar plates overnight and diluted in saline at proper concentration. The inoculum titer was determined by plating a serial dilution of bacteria onto agar plates prior to and post challenge. In acute pneumonia models, C57/BL6 mice were inoculated with 1e4 to 2e8 colony-forming units (CFU) of K. pneumoniae clinical isolates in 50 μl saline intranasally. Anti-K pneumoniae monoclonal antibodies (mAbs) and human IgG1 control antibodies were given 1-24 hour post bacterial challenge (therapeutic dosing). Mouse survival was monitored daily until up to day 8. Survival data of representative experiments were plotted in Graphpad Prism software.
(§2) Mice were challenged with 2e8 CFU of Klebsiella pneumoniae Carbanpenemase (KPC) strain Kp961842_O2 or with 3e8 CFU of KPC strain Kp977778_O2, followed by the administration of anti-O2 mAbs. When administered at a concentration of 2 mg/kg 1 hour post bacterial infection, Class III anti-O2 LPS mAbs KPN42, KPN179-IgG1, and KPS44v2017 protected mice from lethal bacterial challenge with the multi-drug resistant KPC strains Kp961842_O2 (FIG. 6, left panel, and FIG. 10) and Kp977778_O2 (FIG. 6B, right panel).

[1] = system: K. pneumoniae 8570ΔcpsBLux (O2); assay: Opsonophagocytic killing (OPK) assay, O2 capsule mutant; type: cell-based, Klebsiella pneumoniae; parameters: key to D Capsule OPK O2: +++: Strongly positive activity; +: Positive activity; +/−: Somewhat positive depending upon the test conditions; details: capsule mutant strain 8570ΔcpsB lux (O2)
In short: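 Luminescent capsule-deficient K. pneumoniae strains were mixed with DMF-differentiated HL-60 cells, 1:10 baby rabbit serum and anti-O2 LPS mAbs (2 ng–2.5 μg/mL), then shaken for 2 h at 37 °C. Killing % came from luminescence (RLU) against no-antibody and negative-control mAb wells, with >40% scored as positive.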

KPC strain Kp977778_O2 = assay: Lethal pneumonia model, KPC strain Kp977778_O2; type: in vivo, Klebsiella pneumoniae; details: C57/BL6 mice, 3e8 CFU; mAb 2 mg/kg 1 hour post infection; survival
Method: as §1, §2

K. pneumoniae O2 = assay: Mouse protection models (O2), Table 7 summary; type: in vivo, Klebsiella pneumoniae; parameters: key: +++: Strongly positive activity; +: Positive activity; +/−: Somewhat positive depending upon the test conditions; details: mouse pneumonia models
Method: As described in more detail in below, anti-O2 LPS mAbs were tested for: 1) binding to O1 and O2 LPS (see Example 5); 2) LPS neutralization (LPS-Neut) against O1 and O2 LPS (see Example 7); 3) OPK against capsule mutant strain 43816ΔcpsB lux (O1) and 8570ΔcpsB lux (O2) (see Example 8); and 4) protective activity in pneumonia models (see Example 9). O2 LPS mAbs were subsequently divided into three classes based on their in vitro activities. Class I mAbs were characterized as Binding (O1+O2+)/OPK (O1−O2+); Class 2 mAbs were characterized as Binding (O1+O2+)/OPK (O1+O2+); and Class III mAbs were characterized as Binding (O1±O2+)/OPK (O1−O2+).
as §1, §2

O2 LPS = assay: ELISA binding to O2 LPS; parameters: species or system Klebsiella pneumoniae; details: secondary screening, ELISA
In short: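 Serial dilutions of monoclonal antibodies bound to LPS-coated plates for 1 h at room temperature, detected with alkaline phosphatase-conjugated anti-human IgG (1 h) and pNPP substrate (30 min). Absorbance read at 405 nm; EC50 values derived from binding curves.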

B1: KPN179: Class III anti-O2 antigen human mAb; VH SEQ ID NO: 53, VL SEQ ID NO: 54 (antibody, V domains shown)
VH: EVQVVESGGGLVKPGGSLRLSCAASGFTFNNAWMNWVRQAPGKGLEWVGRIKRKADGETTDYPASVKGRFTVSRDDSKNTIYLQMNSLKTEDTAIYYCTTRIVTTNDYWGQGTLVTVSS
VL: QSALTQPPSVSGSPGQSVTISCTGTSSDVGYYDYVSWYQQHHPGKAPKHMIYDVNKRPSGVPDRFSGSKSGNTASLTISGLQAEDEADYYCCSYAGGDTFVFGTGTKVTVL
modifications: Description of Artificial Sequence: SyntheticKPN179 VH polypeptide; Description of Artificial Sequence: SyntheticKPN179 VL polypeptide
Q: B1 was tested. Which “protection from lethal bacterial challenge, Kp961842_O2” value (KPC strain Kp961842_O2) did it give?
A: protected

Q: And the “D Capsule OPK O2” value [1]?
A: +++

Q: And the “protection from lethal bacterial challenge, Kp977778_O2” value (KPC strain Kp977778_O2)?
A: protected

Q: And the “Mouse protection models (O2)” value (K. pneumoniae O2)?
A: +++

Q: What about the “binding to LPS-O2” value (O2 LPS) of the same molecule?
A: bind
